Assay results from US20260184809A1 (Genmab, published 2026).
Where two headings read alike, the source gives them in different places.

Key:
[1] = target: T1, human EpCAM, full length, on cells (human, UniProt P16422 24-314); experiment: flow cytometry on DiFi cells, PE anti-human IgG F(ab')2
T1 construct: also called hEpCAM; EpCAM on DiFi, HPAF-II, A549, OV-90-SC12 and MDA-MB-231_hCLDN6_hEpCAM cells
T1 sequence: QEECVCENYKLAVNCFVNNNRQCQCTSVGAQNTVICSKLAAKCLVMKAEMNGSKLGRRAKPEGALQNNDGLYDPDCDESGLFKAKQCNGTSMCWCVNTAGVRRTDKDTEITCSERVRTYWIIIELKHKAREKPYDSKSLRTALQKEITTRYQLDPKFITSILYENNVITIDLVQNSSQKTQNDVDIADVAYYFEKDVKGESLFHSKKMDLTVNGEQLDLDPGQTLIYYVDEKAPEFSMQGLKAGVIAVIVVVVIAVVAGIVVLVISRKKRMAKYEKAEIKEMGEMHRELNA
Protocol: (§1) Binding to the EpCAM-expressing human tumor cell lines DiFi, HPAF-II and A549 by bivalent EpCAM antibodies or bispecific antibodies carrying one EpCAM-binding arm was analyzed by flow cytometry. […] Next, cells were washed once (A-D) or twice (E) in FACS buffer, re-suspended in 100 μL FACS buffer and analyzed on a BD LSRFortessa FACS (BD Biosciences, USA), Celesta (BD Biosciences, USA) or iQue (Sartorius, Germany). Binding curves were analyzed using non-linear regression (sigmoidal dose-response with variable slope) using GraphPad Prism V7.02 software (GraphPad Software, San Diego, CA, USA).

[2] = target: T1, human EpCAM, full length, on cells; experiment: flow cytometry on HPAF-II cells, PE anti-human IgG F(ab')2
Protocol: as §1

[3] = target: T1, human EpCAM, full length, on cells; experiment: flow cytometry on CHO-S cells transiently transfected with full length human EpCAM, PE anti-human IgG F(ab')2
Protocol: (§2) Binding of EpCAM antibodies to CHO-S cells transiently transfected with full length human, cynomolgus monkey or mouse EpCAM was analyzed by flow cytometry. […] Cells were washed twice in FACS buffer, re-suspended in 20 μL FACS buffer supplemented with TO-PRO™-3 Iodide (diluted 1:20000; Invitrogen, cat. no. T3605) and analyzed on an iQue screener (Intellicyt Corporation, USA). Binding curves were analyzed by non-linear regression (sigmoidal dose-response with variable slope) using GraphPad Prism V8.4.1 software (GraphPad Software, San Diego, CA, USA).

[4] = target: T1, human EpCAM, full length, on cells; experiment: flow cytometry on A549 cells, PE anti-human IgG F(ab')2
Protocol: as §1

[5] = target: T1, human EpCAM, full length, on cells; experiment: flow cytometry on DiFi cells, PE anti-human IgG F(ab')2; remark: listed apart in the source
Protocol: as §1

[6] = target: T1, human EpCAM, full length, on cells; experiment: flow cytometry on HPAF-II cells, PE anti-human IgG F(ab')2; remark: listed apart in the source
Protocol: as §1

[7] = target: T2, mouse EpCAM, full length, on transfected CHO-S cells (mouse, UniProt Q99JW5 24-315); experiment: flow cytometry on CHO-S cells transiently transfected with full length mouse EpCAM, PE anti-human IgG F(ab')2
T2 sequence: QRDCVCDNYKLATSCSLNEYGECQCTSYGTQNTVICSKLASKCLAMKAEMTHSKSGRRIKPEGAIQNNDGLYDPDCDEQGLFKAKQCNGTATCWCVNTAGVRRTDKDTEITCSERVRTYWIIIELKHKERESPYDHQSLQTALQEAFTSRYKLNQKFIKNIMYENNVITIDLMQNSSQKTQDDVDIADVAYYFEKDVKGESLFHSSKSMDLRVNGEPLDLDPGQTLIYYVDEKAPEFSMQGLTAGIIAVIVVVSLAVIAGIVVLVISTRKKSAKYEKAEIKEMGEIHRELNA
Protocol: as §2

[8] = target: T1, human EpCAM, full length, on cells; experiment: flow cytometry on DiFi cells, PE anti-human IgG F(ab')2; remark: listed apart in the source
Protocol: as §1

[9] = target: T1, human EpCAM, full length, on cells; experiment: flow cytometry on HPAF-II cells, PE anti-human IgG F(ab')2; remark: listed apart in the source
Protocol: as §1

[10] = target: T1, human EpCAM, full length, on cells; experiment: flow cytometry on DiFi cells, PE anti-human IgG F(ab')2; remark: listed apart in the source
Protocol: as §1

[11] = target: T1, human EpCAM, full length, on cells; experiment: flow cytometry on HPAF-II cells, PE anti-human IgG F(ab')2; remark: listed apart in the source
Protocol: as §1

[12] = target: T1, human EpCAM, full length, on cells; experiment: flow cytometry on CHO-S cells transiently transfected with full length human EpCAM, PE anti-human IgG F(ab')2; remark: listed apart in the source
Protocol: as §2

[13] = target: T2, mouse EpCAM, full length, on …; experiment: flow cytometry on CHO-S cells transiently transfected with full length mouse EpCAM, PE anti-human IgG F(ab')2; remark: listed apart in the source
Protocol: as §2

B1: IgG1-EpCAM-UBS-54-FEAR (antibody, V domains shown)
VH: QVQLVQSGAEVKKPGSSVRVSCKASGGTFSSYAISWVRQAPGQGLEWMGGIIPIFGTANYAQKFQGRVTITADESTSTAYMELSSLRSEDTAVYYCARDPFLHYWGQGTLVTVSS
VL: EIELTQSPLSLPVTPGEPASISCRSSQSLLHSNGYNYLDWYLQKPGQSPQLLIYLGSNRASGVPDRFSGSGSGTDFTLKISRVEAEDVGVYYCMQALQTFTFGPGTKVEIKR
[1]
  EC50 (read off the curve): ~0.4 µg/mL
[2]
  EC50 (read off the curve): ~0.2 µg/mL
[3]
  EC50 (read off the curve): ~0.04 µg/mL

B2: IgG1-EpCAM-A37-FEAR (antibody)
heavy: not shown
light: EIELTQSPGTLSLSPGERATLSCRASQTISNNYLAWYQQKRGQAPRLLIYAASSRATGIPDRFSGTGSGTDFTLTISRLEPEDFAVYYCAQGELYPRQFGGGTKLEIKRTVAAPSVFIFPPSDEQLKSGTASVVCLLNNFYPREAKVQWKVDNALQSGNSQESVTEQDSKDSTYSLSSTLTLSKADYEKHKVYACEVTHQGLSSPVTKSFNRGEC
[4]
  EC50 (read off the curve): ~0.2 µg/mL
[5]
  EC50 (read off the curve): ~0.5 µg/mL
[6]
  EC50 (read off the curve): ~0.1 µg/mL
[3]
  EC50 (read off the curve): ~0.03 µg/mL
[7]
  EC50 (read off the curve): ~0.01 µg/mL

B3: IgG1-EpCAM-C52-FEAR (antibody, V domains shown)
VH: QVQLVQSGAEVKKPGASVKVSCKASGGTFSSYAISWVRQAPGQGLEWMGGIVPIFGTANYAQKFQGRVTITADESTSTAYMELSSLRSEDTAVYYCARDPFLHYWGQGTLVTVSS
VL: EIELTQSPGTLSLSPGERATLSCRASQSVSSSYLAWYQQKPGQAPRLLIYGASSRATGIPDRFSGSGSGTDFTLTISRLEPEDFAVYYCAQGELYPRQFGGGTKLDIKR
[8]
  EC50 (read off the curve): ~0.3 µg/mL
[9]
  EC50 (read off the curve): ~0.07 µg/mL

B4: IgG1-EpCAM-323-A3-FEAR (antibody)
heavy: QIQLVQSGPELKKPGETVKISCKASGYTFTNYGMNWVRQASGEGLKWMGWINTYTGEPTYGEDFKGRFAFSLETSASTAYLQINNLKNEDTATYFCARFGNYVDYWGQGTTLTVSSASTKGPSVFPLAPSSKSTSGGTAALGCLVKDYFPEPVTVSWNSGALTSGVHTFPAVLQSSGLYSLSSVVTVPSSSLGTQTYICNVNHKPSNTKVDKRVEPKSCDKTHTCPPCPAPEFEGGPSVFLFPPKPKDTLMISRTPEVTCVVVAVSHEDPEVKFNWYVDGVEVHNAKTKPREEQYNSTYRVVSVLTVLHQDWLNGKEYKCKVSNKALPAPIEKTISKAKGQPREPQVYTLPPSREEMTKNQVSLTCLVKGFYPSDIAVEWESNGQPENNYKTTPPVLDSDGSFFLYSRLTVDKSRWQQGNVFSCSVMHEALHNHYTQKSLSLSPG
light: DIVMTQAAFSNPVTLGTSASISCRSSKNLLHSNGITYLYWYLQKPGQSPHLLIYQMSNLASGVPDRFSSSGSGTDFTLRISRVEAEDVGVYYCAQNLEIPRTFGGGTKLEIKRTVAAPSVFIFPPSDEQLKSGTASVVCLLNNFYPREAKVQWKVDNALQSGNSQESVTEQDSKDSTYSLSSTLTLSKADYEKHKVYACEVTHQGLSSPVTKSFNRGEC
notes: also called IgG1-323-A3-FEAR
[10]
  EC50 (read off the curve): ~0.08 µg/mL
[11]
  EC50 (read off the curve): ~0.02 µg/mL

B5: bsIgG1-b12-FEAL/EpCAM-323-A3-FEAR (bispecific antibody)
heavy 1: QVQLVQSGAEVKKPGASVKVSCQASGYRFSNFVIHWVRQAPGQRFEWMGWINPYNGNKEFSAKFQDRVTFTADTSANTAYMELRSLRSADTAVYYCARVGPYSWDDSPQDNYYMDVWGKGTTVIVSSASTKGPSVFPLAPSSKSTSGGTAALGCLVKDYFPEPVTVSWNSGALTSGVHTFPAVLQSSGLYSLSSVVTVPSSSLGTQTYICNVNHKPSNTKVDKRVEPKSCDKTHTCPPCPAPEFEGGPSVFLFPPKPKDTLMISRTPEVTCVVVAVSHEDPEVKFNWYVDGVEVHNAKTKPREEQYNSTYRVVSVLTVLHQDWLNGKEYKCKVSNKALPAPIEKTISKAKGQPREPQVYTLPPSREEMTKNQVSLTCLVKGFYPSDIAVEWESNGQPENNYKTTPPVLDSDGSFLLYSKLTVDKSRWQQGNVFSCSVMHEALHNHYTQKSLSLSPG
light 1: EIVLTQSPGTLSLSPGERATFSCRSSHSIRSRRVAWYQHKPGQAPRLVIHGVSNRASGISDRFSGSGSGTDFTLTITRVEPEDFALYYCQVYGASSYTFGQGTKLERKRTVAAPSVFIFPPSDEQLKSGTASVVCLLNNFYPREAKVQWKVDNALQSGNSQESVTEQDSKDSTYSLSSTLTLSKADYEKHKVYACEVTHQGLSSPVTKSFNRGEC
heavy 2: QIQLVQSGPELKKPGETVKISCKASGYTFTNYGMNWVRQASGEGLKWMGWINTYTGEPTYGEDFKGRFAFSLETSASTAYLQINNLKNEDTATYFCARFGNYVDYWGQGTTLTVSSASTKGPSVFPLAPSSKSTSGGTAALGCLVKDYFPEPVTVSWNSGALTSGVHTFPAVLQSSGLYSLSSVVTVPSSSLGTQTYICNVNHKPSNTKVDKRVEPKSCDKTHTCPPCPAPEFEGGPSVFLFPPKPKDTLMISRTPEVTCVVVAVSHEDPEVKFNWYVDGVEVHNAKTKPREEQYNSTYRVVSVLTVLHQDWLNGKEYKCKVSNKALPAPIEKTISKAKGQPREPQVYTLPPSREEMTKNQVSLTCLVKGFYPSDIAVEWESNGQPENNYKTTPPVLDSDGSFFLYSRLTVDKSRWQQGNVFSCSVMHEALHNHYTQKSLSLSPG
light 2: DIVMTQAAFSNPVTLGTSASISCRSSKNLLHSNGITYLYWYLQKPGQSPHLLIYQMSNLASGVPDRFSSSGSGTDFTLRISRVEAEDVGVYYCAQNLEIPRTFGGGTKLEIKRTVAAPSVFIFPPSDEQLKSGTASVVCLLNNFYPREAKVQWKVDNALQSGNSQESVTEQDSKDSTYSLSSTLTLSKADYEKHKVYACEVTHQGLSSPVTKSFNRGEC
[12]
  EC50 (read off the curve): ~0.1 µg/mL
[13]
  EC50 (read off the curve): ~0.05 µg/mL
